Reference: the supplement of paper PMC10567573

B1: SPRY1 (parent)
chain: WIHRPGCRCKNSNTVYCKLESCPS
B2: ZNF232 (parent)
chain: FPKSEQVYLHFLSVVTEDGPEPKD

Variants of: B1
Test: protein stability index of a GFP-peptide fusion (GPS, HEK-293T) (PSI 1-6); higher = more stable
Settings: c terminus: a fixed tail appended
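Further: lentivirally expressed fusions sorted by FACS into six bins by GFP to DsRed ratio, PSI derived from sequencing read proportions per bin multiplied by bin number.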

Protein stability index: each site, then its substitutions
H3: E 3.78, Y 1.59, T 2.71, W 1.73, M 2.52, N 2.4, G 2.76
C22: W 1.83, H 2.01, M 1.53, Y 2.44, K 1.88, P 2.68, D 1.98, A 3.24, L 2.03, F 1.8, I 1.84
R4: W 1.97, M 2.85, C 2.77, T 2.67, A 2.51, S 3.07, F 2.72, V 3.11, D 3.73, H 3.3
P23: I 1.32, T 1.83, M 1.56, S 2.9, Y 1.99, H 2.23, L 1.71, N 2.43, K 2.15, R 1.93, Q 2.41, D 3.04
V15: R 2.67, Q 2.65, T 3.03, Y 1.6, W 2.92, D 3.14
G6: H 2.06, E 3.01, T 3.09, S 2.48, I 3.08, Q 2.16, V 1.93, F 1.7
C9: S 3.7, V 3.41, L 2.69, W 2.04, I 1.17, A 2.19
T14: M 1.97, C 2.56, P 1.79, E 2.84, W 1.85, D 3.07, Y 1.84, K 1.92, N 2.78, L 2.08, V 1.86, I 2.6
L19: V 2, H 1.89, W 2.16, A 3, M 2.37, N 3.33, T 2.44, R 2.73, Y 2.49
N11: R 4.1, A 3.47, H 2.52, E 2.62, T 2.1, F 2.42, C 1.83, M 2.66, I 1.86, Q 2.41
R8: Q 3.29, S 2.24, Y 2.2, T 2.26, G 2.81, I 2.38, V 2.57, D 2.67, H 2.63, C 2.25, F 2.08
P5: W 1.82, C 2.02, L 2.77, S 2.27, I 2.11, H 1.91, R 3.01, M 2.15, Y 3.19, V 2.65, F 1.79
S12: A 3.15, N 2.12, M 2.33, H 1.4, C 3.25, P 1.65, W 1.73, D 2.16, R 2.03, Y 1.97
I2: Y 2.23, C 3.23, G 2.73, W 2.12, A 2.68, M 2.4, N 3.22, S 3.27, P 3.62
C17: T 1.65, Y 1.65, N 1.51, D 1.99, L 1.58, Q 1.71, F 2.98, G 2.81, H 2.3, V 3.78, I 2.46
Y16: L 2.28, V 2.91, Q 2.46, P 2.56, A 3.71, I 1.87, H 2.65, S 2.92, N 3.56, W 2.68, E 3.28, K 2.05, G 2.75
C7: Q 1.94, R 3.4, I 1.52, K 1.49, G 1.25, D 2.28, V 1.15, S 1.77, L 1.72
N13: S 2.06, R 1.88, I 1.67, E 2.64, T 2.4, D 3.17, P 2.36, Y 2.73, C 2.1, M 2.74
W1: K 3.97, T 3.45, Q 3.23, M 2.88, N 4.04, V 3.03, G 3.65, S 4.09, P 3.5, D 4.38, F 2.04
S21: I 2.67, D 2.13, L 1.7, V 2.09, M 1.99, H 2, E 2.4, C 1.8, Y 2.04, N 2.63, P 2.74, K 1.79, R 2.17
K18: T 2.55, Y 1.73, C 2.72, P 2.03, F 1.74, W 1.63, R 2.09
E20: Q 2.12, I 1.5, Y 2.61, T 2.33, M 1.4, A 1.84, G 2.21, R 2.91, D 2.26, F 2.37, S 2.77, K 2.07, V 1.77
K10: T 3.11, I 2.88, G 2.75, W 2.41, R 2.21, M 1.63, C 1.88, Q 2.81, D 3.1
S24: I 2.29, W 3.62, F 2.09, T 2.1, H 2.63, D 3.1, Y 3.13, R 1.61, A 2.25, Q 2.13, M 2.37, P 2.16

Variants of: B2
Test: as above
Settings: c terminus: a fixed tail appended

Protein stability index of substitutions, site by site:
V7: Q 1.88, C 1.63, R 2.49
P20: I 2.25, A 3.42, K 2.47
E5: I 2.23, F 2.35, H 2.31, T 1.59
Y8: I 2.27, W 2.2
S13: T 1.78, K 2.48, N 2.46, P 2.14
K23: T 1.69, F 1.63
F11: L 2.41, D 3.73, T 2.27, N 3.18
Q6: F 1.9, S 1.41, E 2.6, V 1.21
P22: D 3.31, A 1.85
H10: C 2.81, S 1.95, D 3.04
P2: K 2.91, A 1.91, N 2.8, F 2.37, Y 2.89, M 2.28
K3: S 2.7, T 2.75, Q 2.12, P 2.46, G 3.07, E 3.36, C 2.51
L9: W 1.71, V 1.71, K 2.5, H 2.53
F1: G 3.98, P 4.28, C 4.31, I 3.73, S 3.69, A 4.31, T 4.05, Q 4.75
E21: S 2.26, C 1.91
T16: A 2.31, L 1.85, Q 1.87, F 1.63, C 2.47
S4: F 2.49, T 2.34, P 1.95
D18: F 3.47, H 2.46, V 1.23, T 1.76, P 1.94, G 2.32
D24: F 1.99
V14: N 3.09, G 2.68, F 2.18, Q 2.82, L 2.86
L12: N 3.61, F 1.73, H 3.49, T 2.58
G19: S 2.27, D 2.06, F 1.54, W 1.47, P 2.21
V15: I 1.89, K 2.27, M 2.88, T 2.1, N 2.36
E17: K 2, Q 1.8
